{
  "source": "paper PMC2923621",
  "about": "“Gliadin Peptide P31-43 Localises to Endocytic Vesicles and Interferes with Their Maturation” (PLoS ONE, 2010)",
  "key": {"Hrs": {"target": "T1, Hrs (Homo sapiens, UniProt O14964)", "T1 construct": "to quantify the amount of endogenous Hrs present in each compartment; endogenous in cells; host or cells: CaCo-2", "T1 sequence (O14964 whole entry)": "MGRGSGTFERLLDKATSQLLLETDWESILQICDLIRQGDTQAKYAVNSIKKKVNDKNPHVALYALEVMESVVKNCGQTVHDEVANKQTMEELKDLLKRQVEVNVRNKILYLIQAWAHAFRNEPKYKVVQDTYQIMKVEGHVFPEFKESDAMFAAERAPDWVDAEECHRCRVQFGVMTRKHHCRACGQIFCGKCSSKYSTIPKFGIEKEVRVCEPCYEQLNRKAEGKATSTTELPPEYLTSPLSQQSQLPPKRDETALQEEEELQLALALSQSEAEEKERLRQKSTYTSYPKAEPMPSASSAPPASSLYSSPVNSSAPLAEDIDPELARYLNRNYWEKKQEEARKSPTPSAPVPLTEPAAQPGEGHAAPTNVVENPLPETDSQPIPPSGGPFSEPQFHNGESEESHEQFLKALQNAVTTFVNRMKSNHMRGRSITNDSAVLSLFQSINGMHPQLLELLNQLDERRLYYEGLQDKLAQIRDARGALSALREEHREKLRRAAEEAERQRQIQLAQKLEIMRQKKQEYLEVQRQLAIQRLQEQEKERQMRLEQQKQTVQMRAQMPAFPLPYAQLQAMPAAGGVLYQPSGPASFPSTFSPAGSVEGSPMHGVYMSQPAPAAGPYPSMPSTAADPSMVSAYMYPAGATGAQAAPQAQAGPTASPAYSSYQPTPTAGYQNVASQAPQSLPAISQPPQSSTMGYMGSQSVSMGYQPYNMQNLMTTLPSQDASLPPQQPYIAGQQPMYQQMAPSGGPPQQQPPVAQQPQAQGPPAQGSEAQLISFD", "assay": "Subcellular fractionation and immunoblotting of endogenous Hrs", "format": "cell-based", "conditions": "CaCo-2 cells, western blot, three independent experiments", "description": "Near-confluent Caco2 cells in a 90-mm dish were incubated with EGF and P31-43 at various times, after homogenization (10 mM Tris-HCl [pH 7.4], 1 mM EDTA, and the mixture of phosphatase and protease inhibitors) the nuclear fraction was eliminated by centrifugation. The soluble cytosolic and the membrane fraction were obtained by ultracentrifugation. Electrophoresis and immunoblotting were performed as described elsewhere. Briefly the proteins of the soluble cytosolic and the membrane fractions were separated by SDS-PAGE and incubated with anti-Hrs mouse monoclonal antibody (Alexis, Vinci-Biochem, Florence, Italy) or anti-EGFR rabbit polyclonal antibody (Cell Signaling Celbio, Milan Italy) or anti-tubulin mouse monoclonal antibody (SIGMA-Aldrich, Milan, Italy). Densitometric analysis was performed as before."}, "CaCo-2 cells": {"test_system": "CaCo-2 cells", "assay": "BrdU incorporation with or without Hrs-EGFP transfection", "format": "cell-based", "conditions": "serum starved 0.1% FCS, mean ± SD of three independent experiments", "description": "We used the lipofectamine kit (Invitrogen, San Giuliano Milanese, Italy) according to the manufacturer's instructions to transfect all plasmids (Rab5-EGFP, Rab7-EGFP, Hrs-EGFP and Hrs-Ha). Briefly, CaCo-2 cells seeded on coverslips for 48 h were transfected with the plasmids for 16 h. The next day, transfected cells were pulsed and chased as described below or stained for Bromodeoxyuridine (BrdU) with a monoclonal antibody (Sigma-Aldrich, Milan, Italy) and total nuclei were identified by Hoechst staining. BrdU incorporation was performed as described elsewhere, briefly, CaCo-2 cells seeded on coverslips were transfected with Hrs-EGFP and serum starved in DMEM 0.1% foetal calf serum, antibiotics and glutamine for 30–48 h followed by 24 h treatment with gliadin peptides and/or growth factors. BrdU ([…], Boehringer) was added for one hour before fixing the samples. The cells fixed with paraformaldehyde and permeabilised with triton, were stained for BrdU as described and observed at the miscroscope (Axiophot microscope, Carl Zeiss MicroImaging, Inc.). Greater than 100 HRS-EGFP positive cells in several fields were evaluated for BrdU incorporation in each sample. The number of HRS-EGFP/BrdU positive cells was expressed as a proportion of the total Hoechst positive nuclei."}},
  "data": [
    {"substance": "EGF: growth factor used at 100 nanograms/ml as positive control", "values": [
      {"measurement": "Amount of Hrs in the membrane fraction", "setting": "Hrs; normalised to EGFR", "value": "did not affect Hrs concentration in either compartment"},
      {"measurement": "Amount of Hrs in the cytosolic fraction", "setting": "Hrs; normalised to tubulin", "value": "did not affect Hrs concentration in either compartment"},
      {"measurement": "BrdU incorporation (BrdU incorporating cells as percent of total cells)", "setting": "CaCo-2 cells; CaCo-2 cells not expressing Hrs, 24 h treatment (peptides 70 micrograms/ml, EGF 100 nanograms/ml)", "value": "68.99%±7"},
      {"measurement": "BrdU incorporation (BrdU incorporating cells as percent of total cells)", "setting": "CaCo-2 cells; Hrs-EGFP-transfected (Hrs-expressing) CaCo-2 cells, 24 h treatment", "value": "66.25%±9.53%"}
    ]}
  ]
}
